Data on two molecules can be found in patent US20070293451A1 (UNIVERSITY OF PITTSBURGH, published 2007).

The target in test [1] is T1, full length Sse1p (yeast Hsp110) (Saccharomyces cerevisiae (yeast), UniProt P32589 2-693).
T1 construct: Purified as in Goeckeler et al., 2002; also called Sselp
T1 sequence: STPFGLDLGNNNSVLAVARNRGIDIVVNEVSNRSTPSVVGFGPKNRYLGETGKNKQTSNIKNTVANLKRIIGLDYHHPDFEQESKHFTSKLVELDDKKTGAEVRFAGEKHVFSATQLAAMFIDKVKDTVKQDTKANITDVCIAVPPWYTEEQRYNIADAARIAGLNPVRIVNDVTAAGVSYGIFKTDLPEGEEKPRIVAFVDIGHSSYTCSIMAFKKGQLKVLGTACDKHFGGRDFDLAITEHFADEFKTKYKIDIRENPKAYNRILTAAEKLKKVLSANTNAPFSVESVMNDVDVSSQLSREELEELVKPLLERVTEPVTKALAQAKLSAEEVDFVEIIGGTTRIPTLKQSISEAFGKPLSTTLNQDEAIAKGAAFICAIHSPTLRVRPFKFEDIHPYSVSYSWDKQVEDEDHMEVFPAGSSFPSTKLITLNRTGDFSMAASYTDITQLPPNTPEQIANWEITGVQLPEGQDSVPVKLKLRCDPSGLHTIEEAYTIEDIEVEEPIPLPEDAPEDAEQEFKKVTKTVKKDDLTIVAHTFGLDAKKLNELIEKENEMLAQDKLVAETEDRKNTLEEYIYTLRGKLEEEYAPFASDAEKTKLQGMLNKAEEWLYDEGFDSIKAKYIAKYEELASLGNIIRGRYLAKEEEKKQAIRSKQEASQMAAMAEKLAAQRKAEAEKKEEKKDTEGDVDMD
In words: fluorescence anisotropy competition against the labeled peptide. A general note: In fluorescence polarisation assays a small probe gives low polarisation when free and higher when bound to something large.

Test [2] deals with T1, full length Sse1p (yeast Hsp110). In words: fluorescence anisotropy. The protocol:
(§1) In this assay, full length Sse1p and the peptide binding domain of Sse1p were bound to a 6-carboxyfluorescein-aminohexanoic acid-N-terminal-linked-polypeptide having the sequence N-[…]-C (SEQ ID NO: 1), which was derived from firefly luciferase. Binding was assessed by fluorescence anisotropy. […] Unlabeled peptide competes for binding (data not shown).

For test [3], the target named is T2, peptide binding domain of Sse1p (Saccharomyces cerevisiae (yeast), UniProt P32589 375-693, limits assumed).
T2 sequence: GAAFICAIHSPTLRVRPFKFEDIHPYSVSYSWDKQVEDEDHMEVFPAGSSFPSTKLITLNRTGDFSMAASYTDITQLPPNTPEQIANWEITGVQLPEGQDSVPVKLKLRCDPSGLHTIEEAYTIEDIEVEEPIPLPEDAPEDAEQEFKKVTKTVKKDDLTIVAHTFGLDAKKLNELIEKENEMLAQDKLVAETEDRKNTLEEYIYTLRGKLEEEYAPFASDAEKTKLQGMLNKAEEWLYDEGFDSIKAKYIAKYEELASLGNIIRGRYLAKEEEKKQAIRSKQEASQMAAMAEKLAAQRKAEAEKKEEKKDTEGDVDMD
In words: fluorescence anisotropy; reference is full-length Sse1p. As for the experimental part: as §1

As usually defined, the Kd is a measure of binding affinity in units of concentration. A lower Kd goes with a tighter complex.

Ends that are not written are not given here. * marks the point of attachment. 6FAM = O=C1OC2(c3ccc(O)cc3Oc3cc(O)ccc32)c2cc(C(=O)*)ccc21; Ahx = NCCCCCC(=O)O

For LICGFRVVLMYRF [unlabeled peptide LICGFRVVLMYRF], the binding result in test [1] was “binds”.

B1: 6-carboxyfluorescein-aminohexanoic acid-N-terminal-linked polypeptide LICGFRVVLMYRF (derived from firefly luciferase) (peptide)
peptide: {6FAM-Ahx}-LICGFRVVLMYRF
notes: also called fluorescently labeled peptide
In the case of B1, the Kd in test [2] was in the range of 2 to 3 nM. For the same molecule, the “fold lower affinity than full-length Sse1p” value in test [3] was about 100 fold.
